The values below come from publication PMC9482650, “Quantitative fragmentomics allow affinity mapping of interactomes” (Nature Communications, 2022).

Substitutions are numbered along the chain they refer to.

Targets include Inadl_3, Q8NI35; IL16_1, Q14005; LNX1_3, Q8TBB1; FRMPD2_1, Q68DX3; LAP2, Q96RT1; DLG4_2, P78352; LIMK2, P53671; NHERF4_4, Q86UT5; NHERF4_2, Q86UT5.
What all share (assay): holdup assay
Parameters in all cases: key: below the threshold = too weak to quantify, mostly under pKd 3.1 to 4

In another assay the target is T1, APBA1_2, Q02410.
T1 sequence (Q02410 742-832, limits assumed, looked up): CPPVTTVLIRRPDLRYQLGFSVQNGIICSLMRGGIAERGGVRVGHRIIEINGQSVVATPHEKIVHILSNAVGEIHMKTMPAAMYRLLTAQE

A further assay concerns the target T2, TX1BP3, O14907.
T2 sequence (O14907 10-122, limits assumed, looked up): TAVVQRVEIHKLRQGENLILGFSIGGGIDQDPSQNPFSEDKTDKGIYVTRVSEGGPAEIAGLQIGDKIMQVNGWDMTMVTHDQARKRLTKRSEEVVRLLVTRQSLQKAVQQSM

A further assay deals with T3, NHERF3_3, Q5T2W1.
T3 sequence (Q5T2W1 238-333, limits assumed, looked up): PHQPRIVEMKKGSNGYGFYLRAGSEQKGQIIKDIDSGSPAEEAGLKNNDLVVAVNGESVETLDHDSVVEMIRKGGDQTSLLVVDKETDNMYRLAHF

A further assay deals with T4, DFNB31_2, Q9P202.
T4 sequence (Q9P202 274-371, limits assumed, looked up): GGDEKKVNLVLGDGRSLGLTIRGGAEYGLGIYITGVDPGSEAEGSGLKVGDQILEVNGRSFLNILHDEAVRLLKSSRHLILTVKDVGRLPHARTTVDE

For another assay, the target named is T5, MPDZ_10, O75970.
T5 sequence (O75970 1624-1722, limits assumed, looked up): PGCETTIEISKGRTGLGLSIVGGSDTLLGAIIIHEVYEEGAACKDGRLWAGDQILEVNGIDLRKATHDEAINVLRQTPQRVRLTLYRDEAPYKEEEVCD

Another assay deals with T6, PDZD2_2, O15018.
T6 sequence (O15018 329-429, limits assumed, looked up): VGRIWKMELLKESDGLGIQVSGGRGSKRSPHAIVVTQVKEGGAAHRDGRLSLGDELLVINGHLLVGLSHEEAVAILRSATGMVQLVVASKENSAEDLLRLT

Another assay concerns the target T7, MPP7, Q5T2T1.
T7 sequence (Q5T2T1 134-230, limits assumed, looked up): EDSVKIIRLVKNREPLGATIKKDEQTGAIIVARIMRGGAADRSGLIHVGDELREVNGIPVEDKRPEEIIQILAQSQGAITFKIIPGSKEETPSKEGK

The target of the next assay is T8, LNX2_3, Q8N448.
T8 sequence (Q8N448 463-564, limits assumed, looked up): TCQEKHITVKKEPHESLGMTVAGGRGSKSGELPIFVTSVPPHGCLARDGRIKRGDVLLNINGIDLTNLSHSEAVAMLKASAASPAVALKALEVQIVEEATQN

The target of another assay is T9, NHERF3_4, Q5T2W1.
T9 sequence (Q5T2W1 373-468, limits assumed, looked up): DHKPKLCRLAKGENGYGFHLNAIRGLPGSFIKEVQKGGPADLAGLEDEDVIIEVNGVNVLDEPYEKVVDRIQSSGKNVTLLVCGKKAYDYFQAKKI

The target of a further assay is T10, FRMPD1, Q5SYB0.
T10 sequence (Q5SYB0 52-145, limits assumed, looked up): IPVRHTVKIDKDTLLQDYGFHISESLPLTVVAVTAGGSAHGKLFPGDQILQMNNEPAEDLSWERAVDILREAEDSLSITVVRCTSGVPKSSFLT

Another assay has as its target T11, MPP6, Q9NZW5.
T11 sequence (Q9NZW5 125-219, limits assumed, looked up): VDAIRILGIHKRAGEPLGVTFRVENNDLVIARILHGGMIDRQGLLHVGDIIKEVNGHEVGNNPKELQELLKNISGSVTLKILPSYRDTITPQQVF

A further assay concerns the target T12, CARD11, Q9BXL7.
T12 sequence (Q9BXL7 662-765, limits assumed, looked up): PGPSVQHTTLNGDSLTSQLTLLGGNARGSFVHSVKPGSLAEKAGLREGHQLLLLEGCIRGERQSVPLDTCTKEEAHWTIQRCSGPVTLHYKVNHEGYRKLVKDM

A further assay has as its target T13, APBA2_2, Q99767.
T13 sequence (Q99767 654-744, limits assumed, looked up): T1 sequence (Q02410 742-832, limits assumed, looked up) with R10K, R15K, P59A, H65Q, I66A, A70S, Y84F, A89G

A further assay has as its target T14, SHANK1, Q9Y566.
T14 sequence (Q9Y566 658-767, limits assumed, looked up): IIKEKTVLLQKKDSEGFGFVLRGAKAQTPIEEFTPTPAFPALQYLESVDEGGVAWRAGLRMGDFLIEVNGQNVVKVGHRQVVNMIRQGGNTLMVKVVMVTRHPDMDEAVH

[1] abbreviates: plain residues with an end cap or a label only (N-terminal biotin on a linker: ahx).
Where [2] appears, read: plain residues with an end cap or a label only (N-terminal biotin on a linker: ttds).

Chain of NHERF4_2, Q86UT5 (Q86UT5 220-308): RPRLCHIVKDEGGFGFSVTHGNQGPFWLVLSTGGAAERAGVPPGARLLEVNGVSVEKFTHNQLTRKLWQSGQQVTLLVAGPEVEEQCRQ
Chain of Inadl_3, Q8NI35 (Q8NI35 359-469): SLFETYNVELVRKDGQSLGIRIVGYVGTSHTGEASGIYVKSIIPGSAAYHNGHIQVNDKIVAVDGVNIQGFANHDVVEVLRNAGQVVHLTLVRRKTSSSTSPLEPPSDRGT
Chain of FRMPD2_1, Q68DX3 (Q68DX3 770-861): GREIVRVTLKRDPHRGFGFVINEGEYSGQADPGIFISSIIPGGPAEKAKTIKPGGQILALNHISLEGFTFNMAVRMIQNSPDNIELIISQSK
Chain of LIMK2, P53671 (P53671 143-248): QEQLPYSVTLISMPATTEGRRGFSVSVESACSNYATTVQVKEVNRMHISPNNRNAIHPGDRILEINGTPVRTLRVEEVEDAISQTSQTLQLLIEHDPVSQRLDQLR
Chain of LAP2, Q96RT1 (Q96RT1 other isoform, or with tags, fused parts or gaps): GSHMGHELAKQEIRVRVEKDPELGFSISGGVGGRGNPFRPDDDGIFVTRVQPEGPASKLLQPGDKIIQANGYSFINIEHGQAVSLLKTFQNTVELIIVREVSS
Chain of DLG4_2, P78352 (P78352 155-259): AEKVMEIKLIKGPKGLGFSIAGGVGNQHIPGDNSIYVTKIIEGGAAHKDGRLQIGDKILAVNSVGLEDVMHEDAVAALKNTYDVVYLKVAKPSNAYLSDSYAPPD
Chain of IL16_1, Q14005 (Q14005 210-306): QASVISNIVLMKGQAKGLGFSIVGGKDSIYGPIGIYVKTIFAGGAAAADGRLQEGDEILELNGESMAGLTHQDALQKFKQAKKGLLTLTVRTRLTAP
Chain of NHERF4_4, Q86UT5 (Q86UT5 464-550): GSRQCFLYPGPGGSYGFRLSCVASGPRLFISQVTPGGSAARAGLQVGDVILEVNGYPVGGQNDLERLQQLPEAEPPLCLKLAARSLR
Chain of LNX1_3, Q8TBB1 (Q8TBB1 500-596): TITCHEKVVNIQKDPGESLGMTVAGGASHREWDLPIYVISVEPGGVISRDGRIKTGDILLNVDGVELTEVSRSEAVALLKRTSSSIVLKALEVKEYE

A word on the pKd: it is −log10 of the Kd, conventionally taken in molar units. In the case of LSDPSVSTVV [GRIN1, Q05586;Q05586-2], the pKd result in the assay with APBA1_2, Q02410 (setting [1]) is reported as “below the threshold”; with TX1BP3, O14907 (setting [1]) it was “below the threshold”; with Inadl_3, Q8NI35 (setting [1]) it was “below the threshold”; with NHERF3_3, Q5T2W1 (setting [1]), “below the threshold”; with DFNB31_2, Q9P202 (setting [1]), “below the threshold”; with IL16_1, Q14005 (setting [1]), “below the threshold”. Besides, the pKd entry with LNX1_3, Q8TBB1 (setting [1]) is “below the threshold”; in the assay with FRMPD2_1, Q68DX3 (setting [1]) it was “below the threshold”; with MPDZ_10, O75970 (setting [1]), “below the threshold”; with LAP2, Q96RT1 (setting [1]), “below the threshold”; with PDZD2_2, O15018 (setting [1]) it was 4.44; with MPP7, Q5T2T1 (setting [1]) it was “below the threshold”. The negative logarithm of the Kd (pKd) result is “below the threshold” with LNX2_3, Q8N448 (setting [1]); 4.31 in the assay with DLG4_2, P78352 (setting [1]); “below the threshold” with NHERF3_4, Q5T2W1 (setting [1]); “below the threshold” in the assay with FRMPD1, Q5SYB0 (setting [1]); “below the threshold” with MPP6, Q9NZW5 (setting [1]); “below the threshold” with CARD11, Q9BXL7 (setting [1]). For the same molecule, the pKd entry is given as “below the threshold” with LIMK2, P53671 (setting [1]); “below the threshold” with APBA2_2, Q99767 (setting [1]); “below the threshold” in the assay with NHERF4_4, Q86UT5 (setting [1]); “below the threshold” with NHERF4_2, Q86UT5 (setting [1]).
Consider PSASCAVTAA [PDLIM4, P50479;P50479-2], for which the pKd entry is given as “below the threshold” with APBA1_2, Q02410 (setting [1]); “below the threshold” with TX1BP3, O14907 (setting [1]); “below the threshold” with Inadl_3, Q8NI35 (setting [1]); “below the threshold” with NHERF3_3, Q5T2W1 (setting [1]); “below the threshold” with DFNB31_2, Q9P202 (setting [1]); “below the threshold” in the assay with IL16_1, Q14005 (setting [1]). In addition, the pKd result is given as “below the threshold” with LNX1_3, Q8TBB1 (setting [1]); “below the threshold” in the assay with FRMPD2_1, Q68DX3 (setting [1]); “below the threshold” in the assay with LAP2, Q96RT1 (setting [1]); “below the threshold” with PDZD2_2, O15018 (setting [1]); “below the threshold” with MPP7, Q5T2T1 (setting [1]); “below the threshold” with LNX2_3, Q8N448 (setting [1]). In addition, the pKd result in the assay with DLG4_2, P78352 (setting [1]) is “below the threshold”; with NHERF3_4, Q5T2W1 (setting [1]), “below the threshold”; with FRMPD1, Q5SYB0 (setting [1]), “below the threshold”; in the assay with MPP6, Q9NZW5 (setting [1]), “below the threshold”; with CARD11, Q9BXL7 (setting [1]) it was “below the threshold”; in the assay with LIMK2, P53671 (setting [1]), “below the threshold”. Also, the pKd result in the assay with SHANK1, Q9Y566 (setting [1]) was “below the threshold”; with APBA2_2, Q99767 (setting [1]), “below the threshold”; with NHERF4_4, Q86UT5 (setting [1]), “below the threshold”; with NHERF4_2, Q86UT5 (setting [1]) it was “below the threshold”.
Consider NDPAWDETNL [ARHGEF7, Q14155;Q14155-1], for which the pKd was 5.76 with TX1BP3, O14907 (setting [2]); “below the threshold” with Inadl_3, Q8NI35 (setting [2]); “below the threshold” in the assay with NHERF3_3, Q5T2W1 (setting [2]); “below the threshold” in the assay with DFNB31_2, Q9P202 (setting [2]); “below the threshold” with IL16_1, Q14005 (setting [2]); “below the threshold” in the assay with LNX1_3, Q8TBB1 (setting [2]). Further, the pKd entry with FRMPD2_1, Q68DX3 (setting [2]) was “below the threshold”; in the assay with MPDZ_10, O75970 (setting [2]), “below the threshold”; with LAP2, Q96RT1 (setting [2]), 4.46; with MPP7, Q5T2T1 (setting [2]), “below the threshold”; with LNX2_3, Q8N448 (setting [2]) it was “below the threshold”; with DLG4_2, P78352 (setting [2]), “below the threshold”. Also, the pKd result was “below the threshold” in the assay with NHERF3_4, Q5T2W1 (setting [2]); “below the threshold” with FRMPD1, Q5SYB0 (setting [2]); “below the threshold” with MPP6, Q9NZW5 (setting [2]); “below the threshold” with CARD11, Q9BXL7 (setting [2]); “below the threshold” with LIMK2, P53671 (setting [2]); 4.79 with SHANK1, Q9Y566 (setting [2]). The pKd result is reported as “below the threshold” in the assay with APBA2_2, Q99767 (setting [2]); “below the threshold” in the assay with NHERF4_4, Q86UT5 (setting [2]); “below the threshold” with NHERF4_2, Q86UT5 (setting [2]).
Consider EMDRRPATVV [PLCB4, Q15147], for which the pKd was 3.79 in the assay with APBA1_2, Q02410 (setting [2]); 3.73 with TX1BP3, O14907 (setting [2]); “below the threshold” with NHERF3_3, Q5T2W1 (setting [2]); 3.51 in the assay with DFNB31_2, Q9P202 (setting [2]); “below the threshold” with IL16_1, Q14005 (setting [2]); “below the threshold” with LNX1_3, Q8TBB1 (setting [2]). Moreover, the negative logarithm of the Kd (pKd) is 3.97 with FRMPD2_1, Q68DX3 (setting [2]); 3.7 in the assay with MPDZ_10, O75970 (setting [2]); “below the threshold” with LAP2, Q96RT1 (setting [2]); 3.87 in the assay with PDZD2_2, O15018 (setting [2]); “below the threshold” with MPP7, Q5T2T1 (setting [2]); “below the threshold” in the assay with LNX2_3, Q8N448 (setting [2]). Besides, the negative logarithm of the Kd (pKd) is 4.25 in the assay with DLG4_2, P78352 (setting [2]); “below the threshold” with NHERF3_4, Q5T2W1 (setting [2]); 3.61 in the assay with FRMPD1, Q5SYB0 (setting [2]); “below the threshold” with MPP6, Q9NZW5 (setting [2]); 3.64 with CARD11, Q9BXL7 (setting [2]); 3.52 with LIMK2, P53671 (setting [2]). The pKd entry was “below the threshold” with SHANK1, Q9Y566 (setting [2]); “below the threshold” with APBA2_2, Q99767 (setting [2]); “below the threshold” in the assay with NHERF4_4, Q86UT5 (setting [2]); “below the threshold” with NHERF4_2, Q86UT5 (setting [2]).
